Laboratory results as given in patent US20150093799A1.

How the values were obtained:
[1] = target: anti-Jo-1 antibodies (commercially available, from human patient samples) (human); assay: competitive ELISA, full-length histidyl-tRNA synthetase on the plate
[2] = target: anti-Jo-1 antibodies (commercially available, from human patient samples) (human); assay: immunodepletion: HRS polypeptide on NHS-agarose (Affi-gel 10), anti-Jo-1 antibodies (RDL) at 1:1,000, titre by ELISA before and after
[3] = target: anti-Jo-1 antibodies (commercially available, from human patient samples) (human); assay: competitive ELISA: soluble competitor pre-incubated with anti-Jo-1 serum; competitor is plate-bound full-length wild-type HisRS; A450
[4] = target: anti-Jo-1 antibodies (commercially available, from human patient samples) (human); assay: competitive ELISA: soluble competitor pre-incubated with anti-Jo-1 serum; competitor is plate-bound full-length human wild-type HisRS; A450
[5] = target: anti-Jo-1 antibodies (commercially available, from human patient samples) (human); assay: competitive ELISA: soluble HisRS pre-incubated with anti-Jo-1 human serum at 1:2,000; competitor is plate-bound full-length wild-type HisRS; A450

concentration above which competition is seen [1]	percent of detectable Jo-1 antibodies removed [2]	IC50 (read off the curve) [3]	IC50 (read off the curve) [4]	IC50 (read off the curve) [5]	Binder
> 100 nM	20%				Resokine (HRS(1-60)), His-tagged (peptide) MAERAALEELVKLQGERVRGLKQQKASAELIEEEVAKLLKLKAQLGPDESKQKFVLKTPKHHHHHH
	93%	0.03 nM	0.3 nM	0.8 nM	Full-length histidyl-tRNA synthetase (HRS), His-tagged (enzyme) MAERAALEELVKLQGERVRGLKQQKASAELIEEEVAKLLKLKAQLGPDESKQKFVLKTPKGTRDYSPRQMAVREKVFDVIIRCFKRHGAEVIDTPVFELKETLMGKYGEDSKLIYDLKDQGGELLSLRYDLTVPFARYLAMNKLTNIKRYHIAKVYRRDNPAMTRGRYREFYQCDFDIAGNFDPMIPDAECLKIMCEILSSLQIGDFLVKVNDRRILDGMFAICGVSDSKFRTICSSVDKLDKVSWEEVKNEMVGEKGLAPEVADRIGDYVQQHGGVSLVEQLLQDPKLSQNKQALEGLGDLKLLFEYLTLFGIDDKISFDLSLARGLDYYTGVIYEAVLLQTPAQAGEEPLGVGSVAAGGRYDGLVGMFDPKGRKVPCVGLSIGVERIFSIVEQRLEALEEKIRTTETQVLVASAQKKLLEERLKLVSELWDAGIKAELLYKKNPKLLNQLQYCEEAGIPLVAIIGEQELKDGVIKLRSVTSREEVDVRREDLVEEIKRRTGQPLCICAAALEHHHHHH
	< 99%		0.3 nM		HRS(1-506) (enzyme) MAERAALEELVKLQGERVRGLKQQKASAELIEEEVAKLLKLKAQLGPDESKQKFVLKTPKGTRDYSPRQMAVREKVFDVIIRCFKRHGAEVIDTPVFELKETLMGKYGEDSKLIYDLKDQGGELLSLRYDLTVPFARYLAMNKLTNIKRYHIAKVYRRDNPAMTRGRYREFYQCDFDIAGNFDPMIPDAECLKIMCEILSSLQIGDFLVKVNDRRILDGMFAICGVSDSKFRTICSSVDKLDKVSWEEVKNEMVGEKGLAPEVADRIGDYVQQHGGVSLVEQLLQDPKLSQNKQALEGLGDLKLLFEYLTLFGIDDKISFDLSLARGLDYYTGVIYEAVLLQTPAQAGEEPLGVGSVAAGGRYDGLVGMFDPKGRKVPCVGLSIGVERIFSIVEQRLEALEEKIRTTETQVLVASAQKKLLEERLKLVSELWDAGIKAELLYKKNPKLLNQLQYCEEAGIPLVAIIGEQELKDGVIKLRSVTSREEVDVRREDLVEEIKRRTGQPL
